Reference: US20030096272A1, “Genes regulated by peroxisome proliferator-activated receptor gamma agonist” (Incyte Genomics, Inc., priority 2001, published 2003)

Experiments:
[1] = test system: adipocytes obtained from obese donors; assay: microarray differential expression in PPARγ agonist-treated adipocytes, obese donor; assay type: cell-based, human
From the text: (§1) Incyte clones represent template sequences derived from the LIFESEQ GOLD assembled human sequence database (Incyte Genomics). In cases where more than one clone was available for a particular template, the 5′-most clone in the template was used on the microarray. The HUMAN GENOME GEM series 1-5 microarrays (Incyte Genomics) contain 45,320 array elements which represent 22,632 annotated clusters and 22,688 unannotated clusters. For the UNIGEM series microarrays (Incyte Genomics), Incyte clones were mapped to non-redundant Unigene clusters (Unigene database (build 46), NCBI; Shuler (1997) J Mol Med 75:694-698), and the 5′ clone with the strongest BLAST alignment (at least 90% identity and 100 bp overlap) was chosen, verified, and used in the construction of the microarray. The UNIGEM V 2.0 microarray (Incyte Genomics) contains 8,502 array elements which represent 8,372 annotated genes and 130 unannotated clusters.
(§2) To construct microarrays, cDNAs were amplified from bacterial cells using primers complementary to vector sequences flanking the cDNA insert. Thirty cycles of PCR increased the initial quantity of cDNAs from 1-2 ng to a final quantity greater than 5 μg. Amplified cDNAs were then purified using SEPHACRYL-400 columns (APB). Purified cDNAs were immobilized on polymer-coated glass slides. Glass microscope slides (Coming, Corning N.Y.) were cleaned by ultrasound in 0.1% SDS and acetone, with extensive distilled water washes between and after treatments. Glass slides were etched in 4% hydrofluoric acid (VWR Scientific Products, West Chester Pa.), washed thoroughly in distilled water, and coated with 0.05% aminopropyl silane (Sigma-Aldrich) in 95% ethanol. Coated slides were cured in a 110° C. oven. cDNAs were applied to the coated glass substrate using a procedure described in U.S. Pat. No. 5,807,522. One microliter of the cDNA at an average concentration of 100 ng/ul was loaded into the open capillary printing element by a high-speed robotic apparatus which then deposited about 5 nl of cDNA per slide.
(§3) Microarrays were UV-crosslinked using a STRATALINKER UV-crosslinker (Stratagene), and then washed at room temperature once in 0.2% SDS and three times in distilled water. Non-specific binding sites were blocked by incubation of microarrays in 0.2% casein in phosphate buffered saline (Tropix, Bedford Mass.) for 30 minutes at 60° C. followed by washes in 0.2% SDS and distilled water as before.
(§4) Primary cultures of preadipocytes were obtained from subcutaneous fat obtained from a person with a body mass index (BMI; kg/m^2) of 23.59 and from a person with a BMI of 32.47. Individuals with a BMI between 18.5 and 24.9 are classified as ‘healthy’ or normal, whereas individuals with a BMI between 30.0 and 39.9 are classified as obese. Preadipocytes were cultured in F-10 medium with 10% fetal bovine serum. Confluent cells were either treated with 1 μM rosiglitazone (BRL49653), 0.2 mM IBMX, and 100 nM human insulin for 3 days; or remained untreated. Thereafter, the cells were cultured in F-10 medium with 3% fetal bovine serum and 100 nM human insulin. Differentiated adipocytes were compared to untreated preadipocytes maintained in culture in the absence of inducing agents. Between 80% and 90% of the preadipocytes observed under a phase contrast microscope had differentiated to adipocytes by day 15. Cells were harvested at 1, 2, 8, and 15 days post treatment.
(§5) Cells were harvested and lysed in 1 ml of TRIZOL reagent (5×10^6 cells/ml; Invitrogen). […]

[2] = test system: adipocytes obtained from normal donors; assay: microarray differential expression in PPARγ agonist-treated adipocytes, normal donor; assay type: cell-based, human
From the text: as §1, §2, §3, §4, §5

Row | Molecule | regulation in response to PPARγ agonist (in words) ([1]; adipocytes from obese donors) | regulation in response to PPARγ agonist (in words) ([2]; adipocytes from normal donors) | differential expression, Obese 1 d ([1]; obese-donor adipocytes treated with PPARγ agonist (1 μM rosiglitazone, 0.2 mM IBMX, 100 nM insulin), 1 day, relative to untreated time-matched controls, negative = downregulation) [log base 2] | differential expression, Obese 2 d ([1]; obese-donor adipocytes treated with PPARγ agonist (1 μM rosiglitazone, 0.2 mM IBMX, 100 nM insulin), 2 days, relative to untreated time-matched controls, negative = downregulation) [log base 2] | differential expression, Obese 8 d ([1]; obese-donor adipocytes treated with PPARγ agonist (1 μM rosiglitazone, 0.2 mM IBMX, 100 nM insulin), 8 days, relative to untreated time-matched controls, negative = downregulation) [log base 2] | differential expression, Obese mean ([1]; obese-donor adipocytes treated with PPARγ agonist, averaged over 1, 2, 8 and 15 days) [log base 2] | differential expression, Normal 1 d ([2]; normal-donor adipocytes treated with PPARγ agonist (1 μM rosiglitazone, 0.2 mM IBMX, 100 nM insulin), 1 day, relative to untreated time-matched controls, negative = downregulation) [log base 2] | differential expression, Normal 2 d ([2]; normal-donor adipocytes treated with PPARγ agonist (1 μM rosiglitazone, 0.2 mM IBMX, 100 nM insulin), 2 days, relative to untreated time-matched controls, negative = downregulation) [log base 2] | differential expression, Normal 8 d ([2]; normal-donor adipocytes treated with PPARγ agonist (1 μM rosiglitazone, 0.2 mM IBMX, 100 nM insulin), 8 days, relative to untreated time-matched controls, negative = downregulation) [log base 2] | differential expression, Normal mean ([2]; normal-donor adipocytes treated with PPARγ agonist, averaged over 1, 2, 8 and 15 days) [log base 2]
1 | SEQ ID NO:29: cDNA, template 235636.1, represented by clone 3075694; integrin binding protein Del-1 | downregulated | unchanged | – | – | – | – | – | – | – | –
2 | 5425777 (nucleic acid, listed as Homo sapiens, Incyte ID No 5425777CA2) DNA: CCCAGACACAAGTCTTCACTCCTTCCTGCGAGCCCTGAGGAAGCCTTCTTTCCCCAGACATGGCCAACAAGGGTCCTTCCTATGGCATGAGCCGCGAAGTGCAGTCCAAAATCGAGAAGAAGTATGACGAGGAGCTGGAGGAGCGGCTGGTGGAGTGGATCATAGTGCAGTGTGGCCCTGATGTGGGCCGCCCAGACCGTGGGCGCTTGGGCTTCCAGGTCTGGCTGAAGAATGGCGTGATTCTGAGCAAGCTGGTGAACAGCCTGTACCCTGATGGCTCCAAGCCGGTGAAGGTGCCCGAGAACCCACCCTCCATGGTCTTCAAGCAGATGGAGCAGGTGGCTCAGTTCCTGAAGGCGGCTGAGGACTATGGGGTCATCAAGACTGACATGTTCCAGACTGTTGACCTCTTTGAAGGCAAAGACATGGCAGCAGTGCAGAGGACCCTGATGGCTTTGGGCAGCTTGGCAGTGACCAAGAATGATGGGCACTACCGTGGAGATCCCAACTGGTTTATGAAGAAAGCGCAGGAGCATAAGAGGGAATTCACAGAGAGCCAGCTGCAGGAGGGAAAGCATGTCATTGGCCTTCAGATGGGCAGCAACAGAGGGGCCTCCCAGGCCGGCATGACAGGCTACGGACGACCTCGGCAGATCATCAGTTAGAGCGGAGAGGGCTAGCCCTGAGCCCGGCCCTCCCCCAGCTCCTTGGCTGCAGCCATCCCGCTTAGCCTGCCTCACCCACACCCGTGTGGTACCTTCAGCCCTGGCCAAGCTTTGAGGCTCTGTCACTGAGCAATGGTAACTGCACCTGGGCAGCTCCTCCCTGTGCCCCCAGCCTCAGCCCAACTTCTTACCCGAAAGCATCACTGCCTTGGGCCCCTCCCTCCCGGCTGCCCCCATCACCTCTACTGTCTCCTCCCTGGGCTAAGCAGGGGAGAAGCGGGCTGGGGGTAGCCTGGATGTGGGCCAAGTCCACTGTCCTCCTTGGCGGCAAAAGCCCATTGAAGAAGAACCAGCCCAGCCTGCCCCCTATCTTGTCCTGGAATATTTTTGGGGTTGGAACTCAAAAAAAAAAAAGGGGGGGCCCGCGCGTTTATTGTGCCTTCTTCAGACCCCGGGAATTAATTCCCGACCGGATACCTTGGCAGCTATATTGAATCTTGCAACCGTTTAACTTACCATTTTTTGCCTCAGCCCGGTGTTTCTGGCTTGTTTGGGAAGCCGGTTGGTCCTCTTTGGTGTTCCGTTCCACGCGAAAAGGTTTAGACAGACTTCCGGAACACTTCCGGGTTCCCCAGACACCAGCTTCTTTGTTAGGGTCCCCACCGGTCATTGTCGCCCGGATCGCTTGGTCCACCGGCGCGGTTAACGTTTTTTCAGCCGGGCGATGTCA | – | – | −2.55 | −3.20 | −2.02 | −2.59 | −2.16 | −3.01 | −0.23 | −1.80
